Test results reported in patent US20150166663A1.
Blank lines part the entries; values can stand above or below the substance they belong to.

What was measured:
[1] = target: mouse αVβ6 on cells (mouse) (UniProt P43406); assay: FACS, K562 cells expressing mouse αVβ6 (parental 46)
[2] = target: α4β1 integrin on J6.77 cells (UniProt P13612); assay: cell-based or functional assay
[3] = target: cynomolgus β6 on transfected HEK-293 cells (cynomolgus); assay: FACS, transiently transfected HEK-293 cells
[4] = target: cynomolgus αVβ6 on cells (cynomolgus); assay: FACS, transiently transfected HEK-293 cells
[5] = target: cynomolgus αVβ6 on cells (cynomolgus); assay: FACS, K562 cells expressing cynomolgus αVβ6 (parental 46)
[6] = target: cynomolgus αVβ6 on cells (cynomolgus); assay: FACS, HEK-293 cells transfected with cynomolgus αV and β6, day 2
[7] = target: human αV on parental A375M cells (αVβ3 and αVβ5) (human) (UniProt P06756); assay: cell-based or functional assay
[8] = target: α5β1 integrin on K562 cells (UniProt P08648); assay: cell-based or functional assay
[9] = target: human αV on parental A375M cells (αVβ3 and αVβ5) (human) (UniProt P06756); assay: FACS, parental A375M cells, day 1
[10] = target: human αV on parental A375M cells (αVβ3 and αVβ5) (human) (UniProt P06756); assay: FACS, parental A375M cells, day 2
[11] = target: cynomolgus αVβ6 on cells (cynomolgus); assay: FACS, HEK-293 cells transfected with cynomolgus αV and β6, day 1
[12] = target: mouse αVβ6 on cells (mouse) (UniProt P43406); assay: FACS, K562 cells expressing mouse αVβ6 (parental 12)
[13] = target: cynomolgus αVβ6 on cells (cynomolgus); assay: FACS, K562 cells expressing cynomolgus αVβ6 (parental 12)
[14] = target: mouse αVβ6 on cells (mouse) (UniProt P43406); assay: FACS, K562 cells expressing mouse αVβ6 (parental 23)
[15] = target: cynomolgus αVβ6 on cells (cynomolgus); assay: FACS, K562 cells expressing cynomolgus αVβ6 (parental 23)
[16] = target: human αV on parental A375M cells (αVβ3 and αVβ5) (human) (UniProt P06756); assay: FACS, 1 ug/ml, parental A375M cells, day 1
[17] = target: human αVβ6 integrin on cells (human) (UniProt P06756); assay: FMAT, 1 ug/mL on HEK 293 cells stably overexpressing αVβ6
human αVβ6 integrin on cells (human), sequence (P06756 31-1048, chain 1 of 2): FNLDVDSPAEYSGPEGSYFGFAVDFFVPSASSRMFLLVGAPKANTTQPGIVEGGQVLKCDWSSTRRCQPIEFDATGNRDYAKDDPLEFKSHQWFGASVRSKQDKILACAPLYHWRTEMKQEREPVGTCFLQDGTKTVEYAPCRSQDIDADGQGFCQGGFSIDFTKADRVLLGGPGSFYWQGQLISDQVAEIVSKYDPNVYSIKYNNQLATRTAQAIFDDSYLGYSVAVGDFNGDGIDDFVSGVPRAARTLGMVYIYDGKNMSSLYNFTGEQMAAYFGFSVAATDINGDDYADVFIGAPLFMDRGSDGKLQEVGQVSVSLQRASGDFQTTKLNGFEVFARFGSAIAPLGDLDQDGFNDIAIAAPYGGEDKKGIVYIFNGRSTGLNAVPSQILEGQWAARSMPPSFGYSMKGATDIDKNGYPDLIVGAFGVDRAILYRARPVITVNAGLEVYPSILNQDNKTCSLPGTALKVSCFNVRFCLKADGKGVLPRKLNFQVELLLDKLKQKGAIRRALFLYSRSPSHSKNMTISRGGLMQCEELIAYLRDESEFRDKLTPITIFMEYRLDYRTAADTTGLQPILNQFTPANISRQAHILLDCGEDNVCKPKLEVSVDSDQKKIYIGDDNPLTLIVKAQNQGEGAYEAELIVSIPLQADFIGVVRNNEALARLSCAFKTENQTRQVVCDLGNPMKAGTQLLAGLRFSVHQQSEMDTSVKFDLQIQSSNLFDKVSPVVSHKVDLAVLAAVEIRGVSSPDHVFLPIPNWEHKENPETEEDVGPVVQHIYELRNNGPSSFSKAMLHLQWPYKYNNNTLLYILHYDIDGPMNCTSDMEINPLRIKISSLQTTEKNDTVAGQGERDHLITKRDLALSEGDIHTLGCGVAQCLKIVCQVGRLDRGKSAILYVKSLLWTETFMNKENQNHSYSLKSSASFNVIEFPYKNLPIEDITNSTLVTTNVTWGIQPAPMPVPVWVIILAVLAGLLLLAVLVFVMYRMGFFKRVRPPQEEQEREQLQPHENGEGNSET
human αVβ6 integrin on cells (human), sequence (P18564 22-788, chain 2 of 2, further chain): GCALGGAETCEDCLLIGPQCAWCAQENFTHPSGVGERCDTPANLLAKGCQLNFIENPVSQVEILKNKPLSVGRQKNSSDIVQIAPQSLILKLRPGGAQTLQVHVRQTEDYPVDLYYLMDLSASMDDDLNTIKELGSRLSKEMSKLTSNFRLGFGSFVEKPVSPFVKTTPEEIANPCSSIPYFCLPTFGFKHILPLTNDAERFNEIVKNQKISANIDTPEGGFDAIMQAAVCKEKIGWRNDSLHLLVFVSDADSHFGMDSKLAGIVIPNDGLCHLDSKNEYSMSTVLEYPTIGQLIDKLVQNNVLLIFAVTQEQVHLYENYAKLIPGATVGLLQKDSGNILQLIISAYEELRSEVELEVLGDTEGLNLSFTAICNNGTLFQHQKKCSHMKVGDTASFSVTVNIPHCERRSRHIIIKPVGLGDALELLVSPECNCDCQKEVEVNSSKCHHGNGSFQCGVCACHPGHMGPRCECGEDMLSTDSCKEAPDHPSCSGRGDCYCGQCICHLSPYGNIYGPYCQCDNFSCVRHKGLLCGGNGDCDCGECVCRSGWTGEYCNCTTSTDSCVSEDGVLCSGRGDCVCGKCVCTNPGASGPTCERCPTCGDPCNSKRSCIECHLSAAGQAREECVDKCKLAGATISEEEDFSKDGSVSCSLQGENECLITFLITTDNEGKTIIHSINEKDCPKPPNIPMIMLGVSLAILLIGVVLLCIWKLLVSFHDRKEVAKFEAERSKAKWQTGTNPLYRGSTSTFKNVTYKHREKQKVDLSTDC

[18] = target: cynomolgus αVβ6 on cells (cynomolgus); assay: FACS, 1 ug/ml, HEK-293 cells transfected with cynomolgus αV and β6, day 2
[19] = target: human αVβ6 integrin on cells (human) (UniProt P06756); assay: cell-based or functional assay
[20] = target: mouse αVβ6 on cells (mouse) (UniProt P43406); assay: FACS, K562 cells expressing mouse αVβ6 (parental 15)
[21] = target: human αV on parental A375M cells (αVβ3 and αVβ5) (human) (UniProt P06756); assay: FACS, 1 ug/ml, parental A375M cells, day 2
[22] = target: cynomolgus αVβ6 on cells (cynomolgus); assay: FACS, K562 cells expressing cynomolgus αVβ6 (parental 15)
[23] = target: soluble αVβ6 (human) (UniProt P06756); assay: ELISA, 1 ug/mL on coated soluble αVβ6
[24] = target: cynomolgus αVβ6 on cells (cynomolgus); assay: FACS, 1 ug/ml, HEK-293 cells transfected with cynomolgus αV and β6, day 1

mouse αVβ6 on cells (mouse), sequence (P43406 31-1044, chain 1 of 2): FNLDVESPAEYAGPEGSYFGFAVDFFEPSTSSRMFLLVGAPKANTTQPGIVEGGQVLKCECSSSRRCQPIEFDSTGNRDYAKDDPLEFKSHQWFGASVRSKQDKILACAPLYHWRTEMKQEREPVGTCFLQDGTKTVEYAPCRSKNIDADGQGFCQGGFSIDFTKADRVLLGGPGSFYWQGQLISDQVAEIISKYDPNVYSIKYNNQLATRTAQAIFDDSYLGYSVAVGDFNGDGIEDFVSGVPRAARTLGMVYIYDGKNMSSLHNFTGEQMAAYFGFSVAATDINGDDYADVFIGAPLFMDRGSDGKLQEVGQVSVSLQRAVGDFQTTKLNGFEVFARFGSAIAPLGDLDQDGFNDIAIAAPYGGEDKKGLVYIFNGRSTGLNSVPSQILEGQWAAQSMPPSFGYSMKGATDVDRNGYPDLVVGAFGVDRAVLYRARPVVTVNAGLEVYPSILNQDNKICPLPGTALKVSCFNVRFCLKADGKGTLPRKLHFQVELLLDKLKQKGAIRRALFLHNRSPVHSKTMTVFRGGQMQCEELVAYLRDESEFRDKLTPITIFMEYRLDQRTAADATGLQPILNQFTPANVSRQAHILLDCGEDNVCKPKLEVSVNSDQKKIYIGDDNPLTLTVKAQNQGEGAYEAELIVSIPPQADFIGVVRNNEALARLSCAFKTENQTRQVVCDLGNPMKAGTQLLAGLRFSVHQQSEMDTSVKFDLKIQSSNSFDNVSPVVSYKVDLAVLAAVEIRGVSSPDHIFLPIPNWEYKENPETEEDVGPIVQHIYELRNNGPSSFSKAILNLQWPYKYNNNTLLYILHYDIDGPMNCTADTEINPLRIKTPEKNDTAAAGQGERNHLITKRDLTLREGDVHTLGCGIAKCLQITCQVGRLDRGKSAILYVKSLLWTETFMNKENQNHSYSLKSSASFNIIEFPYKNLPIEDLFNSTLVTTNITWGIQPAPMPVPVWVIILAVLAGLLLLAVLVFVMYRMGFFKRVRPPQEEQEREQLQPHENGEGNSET
mouse αVβ6 on cells (mouse), sequence (Q9Z0T9 22-787, chain 2 of 2, further chain): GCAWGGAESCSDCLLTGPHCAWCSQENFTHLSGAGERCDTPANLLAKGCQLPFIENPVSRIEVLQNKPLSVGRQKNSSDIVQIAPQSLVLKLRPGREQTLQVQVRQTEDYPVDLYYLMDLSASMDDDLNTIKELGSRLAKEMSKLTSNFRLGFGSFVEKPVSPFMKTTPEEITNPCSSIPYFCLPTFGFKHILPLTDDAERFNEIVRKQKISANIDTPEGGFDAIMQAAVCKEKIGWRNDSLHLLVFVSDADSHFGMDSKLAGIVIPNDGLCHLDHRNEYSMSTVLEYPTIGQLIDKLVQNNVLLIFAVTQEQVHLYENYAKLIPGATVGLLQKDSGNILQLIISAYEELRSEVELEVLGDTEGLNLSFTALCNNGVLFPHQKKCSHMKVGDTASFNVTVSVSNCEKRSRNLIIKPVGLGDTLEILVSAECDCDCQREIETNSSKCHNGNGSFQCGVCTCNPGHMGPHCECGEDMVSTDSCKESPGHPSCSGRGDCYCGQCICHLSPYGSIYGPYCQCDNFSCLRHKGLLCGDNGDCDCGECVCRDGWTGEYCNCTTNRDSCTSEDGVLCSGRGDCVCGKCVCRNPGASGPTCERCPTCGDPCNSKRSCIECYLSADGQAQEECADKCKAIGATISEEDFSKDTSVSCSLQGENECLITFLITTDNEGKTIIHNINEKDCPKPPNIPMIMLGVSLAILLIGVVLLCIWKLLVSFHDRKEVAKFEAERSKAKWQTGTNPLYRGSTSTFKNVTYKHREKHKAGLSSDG

Substance: Human IgG1 (antibody)
Geometric Mean Shift (arbitrary units) [1]: 108
Percent Inhibition, adhesion of J6.77 cells to CS-1 peptide of fibronectin, 5 ug/ml [2]: 26%
Percent Inhibition, adhesion of J6.77 cells to CS-1 peptide of fibronectin, 5 µg/ml [2]: -6%
percent of cells shifted [3]: 1%
percent of cells shifted [4]: 0%
Geometric Mean Shift (arbitrary units) [5]: 54

Substance: Human IgG4 (antibody)
Percent Inhibition, adhesion of J6.77 cells to CS-1 peptide of fibronectin, 5 ug/ml [2]: 15%

Substance: Mouse IgG1 (antibody)
Geometric Mean Shift (arbitrary units) [12]: 20
Geometric Mean Shift (arbitrary units) [13]: 13

Substance: Mouse IgG2a (antibody)
Geometric Mean Shift (arbitrary units) [14]: 36
Geometric Mean Shift (arbitrary units) [15]: 25

Substance: Mouse IgG Control (antibody)
Percent Inhibition, adhesion of A375M cells to osteopontin peptide, 5 µg/ml [7]: 5%

More lines, now with the values ahead:

Percent Inhibition, adhesion of J6.77 cells to CS-1 peptide of fibronectin, 5 ug/ml [2]: 13%
Percent Inhibition, adhesion of J6.77 cells to CS-1 peptide of fibronectin, 5 µg/ml [2]: -9%
Substance: Human IgG2 (antibody)

Mac AVB6 % Cells Shifted [6]: 0%
Mac AVB6 GeoMean [6]: 7.39
Percent Inhibition, adhesion of A375M cells to osteopontin peptide, 5 µg/ml [7]: 3%
% Inhibition, adhesion of K562 cells to fibronectin [8]: -12%
Percent Inhibition, adhesion of K562 cells to FN9-10 peptide of fibronectin, 5 µg/ml [8]: 11%
A375M % Shifted Cells [9]: 5%
A375M GeoMean [9]: 1.66
A375M % Shifted Cells [10]: 1%
A375M GeoMean [10]: 7.23
Mac AVB6 % Cells Shifted [11]: 1%
Mac AVB6 GeoMean [11]: 9.54
Substance: Human IgG Isotype Control (antibody)

Mac AVB6 % Cells Shifted [6]: 0%
Mac AVB6 GeoMean [6]: 11.2
A375M % Shifted Cells [9]: 4%
A375M GeoMean [9]: 1.67
A375M % Shifted Cells [10]: 3%
A375M GeoMean [10]: 11.2
Mac AVB6 % Cells Shifted [11]: 1%
Mac AVB6 GeoMean [11]: 8.85
Substance: Mouse IgG2 with Murine Secondary Antibody

A375M % Shifted Cells [16]: 30%
A375M GeoMean [16]: 2.03
FMAT FL1XCount [17]: 44200
Mac AVB6 % Cells Shifted [18]: 11%
Mac AVB6 GeoMean [18]: 28.1
Estimated IC50, adhesion of HT29 cells to TGFβLAP, n = 1 [19]: 0.226 µg/mL
Estimated IC50, adhesion of HT29 cells to TGFβLAP, n = 2 [19]: 0.185 µg/mL
Estimated IC50, adhesion of HT29 cells to TGFβLAP, n = 3 [19]: 0.286 µg/mL
Geometric Mean Shift (arbitrary units) [20]: 122
A375M % Shifted Cells [21]: 5%
A375M GeoMean [21]: 15.4
percent of cells shifted [3]: 5%
percent of cells shifted [4]: 20%
Geometric Mean Shift (arbitrary units) [22]: 84
ELISA OD [23]: 6 OD
Mac AVB6 % Cells Shifted [24]: 42%
Mac AVB6 GeoMean [24]: 55.5
Substance: murine αVβ6 antibody (Cat#MAB2077z, Chemicon)
